Laboratory results: patent US20120283184A1 (published 2012)
Numbering of substitutions follows the chain as printed.

B1: 2′Del D1 PR4 (designed binder)
chain: EVVAATPTSLLISWRHPHFPTRYYRITYGETGGNSPVQEFTVPLQPPTATISGLKPGVDYTITVYAVTLEQNDRVLLTPISINYRT
B2: 2′Del G11 PR4 (designed binder)
chain: B1 chain with L69G, E70G, N72M, D73N, L77M
B3: 3′B11 PR4 (designed binder)
chain: B1 chain with L69E, E70T, Q71W, R74H, V75E, L76I, L77R
B4: 2′DelC7 PR4 (designed binder)
chain: B1 chain with L69W, E70D, D73G, R74H
B5: 2′Del F11 PR4 (designed binder)
chain: B1 chain with L69M, E70G, R74K, V75E, L77I
B6: 3C9 PR3 (designed binder)
chain: B1 chain with E70V, Q71R, R74H, V75E
B7: 3F8 PR3 (designed binder)
chain: B1 chain with L69V, E70A, D73G, R74H, V75E, L77K
B8: 2′Del H6 PR4 (designed binder)
chain: B1 chain with L69T, E70G, Q71H, N72H, R74H, V75E, L77I, T78I
B9: 3A3 PR3 (designed binder)
chain: B1 chain with E70A, Q71Y, D73G, V75E, L76I, L77I
B10: 2′Del F8 PR4 (designed binder)
chain: B1 chain with L69A, E70G, Q71P, N72G, D73A, R74H, V75E
B11: 2′DelG5 PR4 (designed binder)
chain: B1 chain with L69V, E70G, D73N, R74H, V75E
B12: 2′DelE4 PR4 (designed binder)
chain: B1 chain with L69V, E70H, Q71W, D73G, R74H, V75E, L77M
B13: 3′C3 PR4 (designed binder)
chain: B1 chain with L69M, E70A, D73G, R74H, V75A, L77F
B14: 3′C8 PR4 (designed binder)
chain: B1 chain with L69E, E70G, Q71L, R74H, V75E, L77M, T78I
B15: 3′A8 PR4 (designed binder)
chain: B1 chain with L69V, E70A, Q71W, N72D, R74H, V75E
B16: 2′Del E6 PR4 (designed binder)
chain: B1 chain with L69M, E70G, Q71K, D73G, R74H, V75E
B17: 3C7 PR3 (designed binder)
chain: B1 chain with L69R, E70G, Q71L, R74G, V75E
B18: 3′B12 PR4 (designed binder)
chain: B1 chain with L69V, E70A, Q71H, N72E, D73N, V75E
B19: 2′Del F5 PR4 (designed binder)
chain: B1 chain with E70V, Q71H, V75E
B20: 2′Del D10 PR4 (designed binder)
chain: B1 chain with E70A, Q71D, D73A, V75E
B21: 3F10 PR3 (designed binder)
chain: B1 chain with E70A, N72D, R74H, V75E
B22: 2′Del D3 PR4 (designed binder)
chain: B1 chain with L69S, E70G, Q71L, L77F, T78I
B23: 3B4 PR3 (designed binder)
chain: B1 chain with L69V, E70G, D73E, R74H, V75E
B24: 3G2 PR3 (designed binder)
chain: B1 chain with L69F, E70G, Q71P, N72S, R74H
B25: 3′C12 PR4 (designed binder)
chain: B1 chain with L69I, E70G, Q71P, D73N, R74H, V75E
B26: 3′C5 PR4 (designed binder)
chain: B1 chain with L69D, E70A, Q71M, N72Y, D73G, V75E, L77M
B27: 2′Del F7 PR4 (designed binder)
chain: B1 chain with E70G, Q71L, N72R, V75E, L77F, T78V
B28: 2′Del D5 PR4 (designed binder)
chain: B1 chain with L69V, E70A, Q71W, R74H, V75M, L77M
B29: 2′Del F6 PR4 (designed binder)
chain: B1 chain with E70G, Q71W, R74H, V75E, L77Y, T78I
B30: 2′Del E5 PR4 (designed binder)
chain: B1 chain with L69E, E70G, Q71L, R74H, V75E, L77I, T78I
B31: 2′Del E3 PR4 (designed binder)
chain: B1 chain with E70G, Q71P, N72Y, D73E, R74H, V75E
B32: 2′DelC3 PR4 (designed binder)
chain: B1 chain with L69W, E70A, D73G, V75E
B33: 3′B10 PR4 (designed binder)
chain: B1 chain with E70A, N72T, D73G, V75E
B34: 3′B2 PR4 (designed binder)
chain: B1 chain with L69V, E70G, Q71R, V75E
B35: 3B5 PR3 (designed binder)
chain: B1 chain with L69F, E70G, D73G, R74H, V75A
B36: 3′D3 PR4 (designed binder)
chain: B1 chain with L69P, E70G, Q71P, N72G, V75E, L77I
B37: 2′DelB7 PR4 (designed binder)
chain: B1 chain with L69V, E70G, Q71Y, D73N, V75E
B38: 2′DelH4 PR4 (designed binder)
chain: B1 chain with L69V, E70G, Q71P, D73E, V75M, L77M
B39: 3′A9 PR4 (designed binder)
chain: B1 chain with E70A, Q71H, V75E
B40: 3′D2 PR4 (designed binder)
chain: B1 chain with L69V, Q71S, D73G, R74H, V75A, L77F, T78V
B41: 2′Del H12 PR4 (designed binder)
chain: B1 chain with L69A, E70G, Q71G, D73G, R74H, V75E
B42: 3A2 PR3 (designed binder)
chain: B1 chain with L69W, E70S, D73N, V75E, L77F
B43: 2′DelA5 PR4 (designed binder)
chain: B1 chain with L69W, E70N, D73G, R74Q, V75E, L77F
B44: 2′DelH9 PR4 (designed binder)
chain: B1 chain with L69V, E70G, Q71W, N72S, D73G, R74H, V75E, L77F, T78V
B45: 3D12 PR3 (designed binder)
chain: B1 chain with E70G, V75Q, T78V
B46: 2′Del H5 PR4 (designed binder)
chain: B1 chain with E70G, Q71K, N72D, D73V, V75E
B47: 3′B1 PR4 (designed binder)
chain: B1 chain with L69E, E70A, Q71R, D73G, V75E
B48: 3C3 PR3 (designed binder)
chain: B1 chain with L69M, D73G, R74H, V75E, L77F
B49: 3′A7 PR4 (designed binder)
chain: B1 chain with E70S, Q71D, N72S, D73G, R74H, V75A, L77F
B50: 2′Del F1 PR4 (designed binder)
chain: B1 chain with L69R, E70D, N72Y, D73E, R74H, V75E
B51: 3′A6 PR4 (designed binder)
chain: B1 chain with E70A, D73G, R74H, V75E
B52: 2′Del G9 PR4 (designed binder)
chain: B1 chain with L69V, D73G, V75E, L77I, T78I
B53: 3′B4 PR4 (designed binder)
chain: B1 chain with L69V, E70A, Q71W, D73G, R74H, V75E, L77M
B54: 3′B8 PR4 (designed binder)
chain: B1 chain with E70G, Q71Y, N72H, R74H, V75A, L77F

Target: T1, human vascular endothelial growth factor receptor-2 Fc chimera (KDR-Fc) (human, UniProt P35968 20-764)
T1 construct: range 1-764; also called human VEGFR-2; not shown: human IgG1 Fc
Assay: radioactive equilibrium binding, 1 nM KDR-Fc, % of input
Description: To prepare ³⁵S-labeled binding proteins for analysis, mRNA was prepared as described above for RNA-protein fusion production but the linker ligation step was omitted. The mRNA was expressed using rabbit reticulocyte lysate translation kit (Ambion) in the presence of ³⁵S-labeled Met at 30° C. for 1 hour. Expressed protein was purified on M2-agarose Flag beads (Sigma) as described above. This procedure produced the encoded protein without the nucleic acid tail. In a direct binding assay, VEGF-R2-Fc fusions in concentrations ranging from 0 to 200 nM were added to a constant concentration of the purified protein (0.2 or 0.5 nM) and incubated at 30° C. for 1 hour in buffer B. The receptor-binder complexes were captured using Protein A magnetic beads for another 10 minutes at room temperature using a Kingfisher™ The beads were washed with six reaction volumes of buffer B. The protein was eluted from the beads with 100 μL of 0.1 M KOH. 50 μL of the reaction mixture and elution were dried onto a LumaPlate-96 (Packard) and the amount of ³⁵S on the plate was measured using a TopCount NXT instrument (Packard). The amount of fibronectin-based scaffold protein bound to the target was estimated as a percent of radioactivity eluted from Protein A magnetic beads compare to radioactivity in the reaction mixture. Nonspecific binding of fibronectin-based scaffold proteins to the beads was determined by measuring binding in the absence of KDR-Fc and represented less than 1-2% of the input. Specific binding was obtained through subtraction of nonspecific binding from total binding. Data was analyzed using the GraphPad Prizm software (GraphPad Software, Inc, San Diego, Calif.), fitted using a one site, non-linear binding equation.

T1 sequence (P35968 20-764 limits assumed, change not shown, form in doubt): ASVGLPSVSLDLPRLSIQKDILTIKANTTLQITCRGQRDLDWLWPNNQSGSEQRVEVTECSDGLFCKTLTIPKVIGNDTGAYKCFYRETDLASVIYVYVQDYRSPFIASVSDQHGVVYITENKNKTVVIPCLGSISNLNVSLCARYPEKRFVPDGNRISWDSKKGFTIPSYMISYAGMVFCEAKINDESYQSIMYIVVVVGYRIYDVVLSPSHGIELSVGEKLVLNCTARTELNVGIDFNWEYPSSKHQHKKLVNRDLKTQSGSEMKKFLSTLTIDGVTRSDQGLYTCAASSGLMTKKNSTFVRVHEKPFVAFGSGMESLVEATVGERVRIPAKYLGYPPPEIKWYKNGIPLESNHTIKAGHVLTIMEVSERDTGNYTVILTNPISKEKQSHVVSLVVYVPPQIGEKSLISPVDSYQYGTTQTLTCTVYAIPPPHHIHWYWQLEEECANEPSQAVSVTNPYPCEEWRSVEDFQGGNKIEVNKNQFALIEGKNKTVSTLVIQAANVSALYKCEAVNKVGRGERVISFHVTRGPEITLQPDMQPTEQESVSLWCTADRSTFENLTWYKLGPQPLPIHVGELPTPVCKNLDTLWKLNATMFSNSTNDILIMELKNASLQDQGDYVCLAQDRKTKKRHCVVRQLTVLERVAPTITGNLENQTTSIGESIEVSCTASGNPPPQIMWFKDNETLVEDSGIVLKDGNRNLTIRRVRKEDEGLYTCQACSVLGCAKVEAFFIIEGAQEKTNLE

| Binding to 1 nM KDR, % | Binder |
| --- | --- |
| 28% | B1 |
| 22% | B2 |
| 23% | B3 |
| 19% | B4 |
| 27% | B5 |
| 16% | B6 |
| 17% | B7 |
| 28% | B8 |
| 23% | B9 |
| 42% | B10 |
| 19% | B11 |
| 34% | B12 |
| 32% | B13 |
| 19% | B14 |
| 27% | B15 |
| 43% | B16 |
| 20% | B17 |
| 28% | B18 |
| 22% | B19 |
| 34% | B20 |
| 16% | B21 |
| 38% | B22 |
| 17% | B23 |
| 20% | B24 |
| 33% | B25 |
| 27% | B26 |
| 38% | B27 |

| Binding to 1 nM KDR, % | Binder |
| --- | --- |
| 18% | B28 |
| 22% | B29 |
| 19% | B30 |
| 33% | B31 |
| 29% | B32 |
| 21% | B33 |
| 29% | B34 |
| 20% | B35 |
| 42% | B36 |
| 32% | B37 |
| 30% | B38 |
| 25% | B39 |
| 19% | B40 |
| 24% | B41 |
| 23% | B42 |
| 20% | B43 |
| 20% | B44 |
| 24% | B45 |
| 34% | B46 |
| 25% | B47 |
| 17% | B48 |
| 34% | B49 |
| 20% | B50 |
| 19% | B51 |
| 33% | B52 |
| 38% | B53 |
| 14% | B54 |
